This data set concerns the molecule itself. Briefly: crystal structure.

B1: CML1 (C. cinerea Mucin-binding Lectin 1), recombinant untagged (natural protein, Coprinopsis cinerea, UniProt B3VS76 1-127, looked up)
chain: MAIFHTGSELFIITRGPGKLTLLTWGGLNNLRSVIGAIPTENTGVTKWAVSFSHNYTRFSFIWEGQGEACYQIGNGLTRSPVGRSWSSSSTIHWGSSTVITEDVTSVVPGAVNRDKVTTAYALPDNL
Take B1: the “stoichiometry N” value was 6.

The values are drawn from paper PMC9191617 (Glycobiology, 2022).
